Assay results taken from patent publication US20020058247A1.

Target: … (SEQ. ID. No. 74)
Assay: competition EIA, 5 ug HBcAg peptide + 5 ug SEQ 74 peptide on coated HBcAg (competitor); OD of bound SEQ 74 peptide

Row | Substance | OD at 490 nm [OD]
1 | HBcAg peptide … (residues 51-70, Sequence ID 100) | 0.646
2 | HBcAg peptide … (residues 111-131 as printed, Sequence ID 106) | 0.832
3 | HBcAg peptide … (residues 121-140, Sequence ID 107) | 0.701
4 | HBcAg peptide … (residues 141-160, Sequence ID 109) | 0.811
5 | HBcAg peptide … (residues 151-170, Sequence ID 110) | 0.732
6 | HBcAg peptide … (residues 161-183, Sequence ID 111) | 0.678
